In US7700101B2, “Reagents and method for modulating Dkk-mediated interactions” (Wyeth, priority 2001, dated 2010):
“Also recorded” adds a separate entry of the source. Like-named read-outs stand apart in the source and are kept apart here.

What was measured:
LRP6 [1] = target: T1, LRP6 (Homo sapiens, UniProt O75581); details: cited from earlier work
Target sequence in this assay (O75581 20-1613, species assumed): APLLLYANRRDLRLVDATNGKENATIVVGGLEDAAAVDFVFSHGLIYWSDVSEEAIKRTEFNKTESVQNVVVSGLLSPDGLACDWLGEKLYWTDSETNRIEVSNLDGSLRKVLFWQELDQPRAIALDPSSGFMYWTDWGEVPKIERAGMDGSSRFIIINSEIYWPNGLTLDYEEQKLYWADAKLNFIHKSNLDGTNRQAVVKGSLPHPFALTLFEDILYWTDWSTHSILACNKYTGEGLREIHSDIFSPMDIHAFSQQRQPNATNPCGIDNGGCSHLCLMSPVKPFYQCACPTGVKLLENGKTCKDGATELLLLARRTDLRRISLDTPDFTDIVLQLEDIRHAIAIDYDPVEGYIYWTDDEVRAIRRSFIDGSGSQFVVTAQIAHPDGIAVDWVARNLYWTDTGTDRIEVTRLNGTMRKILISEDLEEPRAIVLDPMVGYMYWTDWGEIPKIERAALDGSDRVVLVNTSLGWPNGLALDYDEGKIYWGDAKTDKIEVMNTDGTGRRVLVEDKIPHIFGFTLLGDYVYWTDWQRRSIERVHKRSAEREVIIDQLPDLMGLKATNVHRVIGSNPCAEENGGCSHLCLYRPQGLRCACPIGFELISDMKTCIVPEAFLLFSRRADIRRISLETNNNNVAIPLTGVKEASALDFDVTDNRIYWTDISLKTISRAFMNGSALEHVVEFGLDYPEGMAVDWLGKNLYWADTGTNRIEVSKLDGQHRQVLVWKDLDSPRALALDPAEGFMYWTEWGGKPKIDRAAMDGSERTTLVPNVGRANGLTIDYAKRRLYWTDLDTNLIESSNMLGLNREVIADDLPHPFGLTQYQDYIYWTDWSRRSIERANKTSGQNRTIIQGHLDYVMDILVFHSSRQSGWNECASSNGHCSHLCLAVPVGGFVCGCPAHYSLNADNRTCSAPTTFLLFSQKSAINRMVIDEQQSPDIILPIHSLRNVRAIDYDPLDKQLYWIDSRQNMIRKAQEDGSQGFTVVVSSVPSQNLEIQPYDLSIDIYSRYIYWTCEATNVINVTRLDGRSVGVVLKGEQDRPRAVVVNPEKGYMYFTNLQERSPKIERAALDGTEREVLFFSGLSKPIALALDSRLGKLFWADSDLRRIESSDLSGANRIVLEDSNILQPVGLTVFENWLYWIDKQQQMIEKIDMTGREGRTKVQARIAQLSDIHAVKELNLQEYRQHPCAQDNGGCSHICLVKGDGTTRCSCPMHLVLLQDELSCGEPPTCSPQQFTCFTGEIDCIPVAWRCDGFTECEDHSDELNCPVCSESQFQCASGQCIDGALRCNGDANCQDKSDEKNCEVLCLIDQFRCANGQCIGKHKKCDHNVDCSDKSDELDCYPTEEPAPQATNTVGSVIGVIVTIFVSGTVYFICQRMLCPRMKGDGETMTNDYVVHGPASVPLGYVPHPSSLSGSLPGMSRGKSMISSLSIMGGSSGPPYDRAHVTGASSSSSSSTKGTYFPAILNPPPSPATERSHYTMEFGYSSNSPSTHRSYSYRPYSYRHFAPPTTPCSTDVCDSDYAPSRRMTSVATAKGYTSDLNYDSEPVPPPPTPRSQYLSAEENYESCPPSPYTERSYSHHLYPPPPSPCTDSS

HBM [2] = target: T2, HBM (Homo sapiens, UniProt O75197, G171V); experiment: Cell-based TCF reporter high-throughput assay, HBM cDNA; details: U2OS cells, Wnt1 or Wnt3a/Wnt1 co-transfected, FIG. 20
T2 construct: Full length Zmax/LRP5 and HBM ORF cDNA; expressed in transfected cells; host or cells: HOB-03-CE6 osteoblastic cells; U2OS osteosarcoma cells; HEK293
T2 sequence (O75197 32-1615 G171V): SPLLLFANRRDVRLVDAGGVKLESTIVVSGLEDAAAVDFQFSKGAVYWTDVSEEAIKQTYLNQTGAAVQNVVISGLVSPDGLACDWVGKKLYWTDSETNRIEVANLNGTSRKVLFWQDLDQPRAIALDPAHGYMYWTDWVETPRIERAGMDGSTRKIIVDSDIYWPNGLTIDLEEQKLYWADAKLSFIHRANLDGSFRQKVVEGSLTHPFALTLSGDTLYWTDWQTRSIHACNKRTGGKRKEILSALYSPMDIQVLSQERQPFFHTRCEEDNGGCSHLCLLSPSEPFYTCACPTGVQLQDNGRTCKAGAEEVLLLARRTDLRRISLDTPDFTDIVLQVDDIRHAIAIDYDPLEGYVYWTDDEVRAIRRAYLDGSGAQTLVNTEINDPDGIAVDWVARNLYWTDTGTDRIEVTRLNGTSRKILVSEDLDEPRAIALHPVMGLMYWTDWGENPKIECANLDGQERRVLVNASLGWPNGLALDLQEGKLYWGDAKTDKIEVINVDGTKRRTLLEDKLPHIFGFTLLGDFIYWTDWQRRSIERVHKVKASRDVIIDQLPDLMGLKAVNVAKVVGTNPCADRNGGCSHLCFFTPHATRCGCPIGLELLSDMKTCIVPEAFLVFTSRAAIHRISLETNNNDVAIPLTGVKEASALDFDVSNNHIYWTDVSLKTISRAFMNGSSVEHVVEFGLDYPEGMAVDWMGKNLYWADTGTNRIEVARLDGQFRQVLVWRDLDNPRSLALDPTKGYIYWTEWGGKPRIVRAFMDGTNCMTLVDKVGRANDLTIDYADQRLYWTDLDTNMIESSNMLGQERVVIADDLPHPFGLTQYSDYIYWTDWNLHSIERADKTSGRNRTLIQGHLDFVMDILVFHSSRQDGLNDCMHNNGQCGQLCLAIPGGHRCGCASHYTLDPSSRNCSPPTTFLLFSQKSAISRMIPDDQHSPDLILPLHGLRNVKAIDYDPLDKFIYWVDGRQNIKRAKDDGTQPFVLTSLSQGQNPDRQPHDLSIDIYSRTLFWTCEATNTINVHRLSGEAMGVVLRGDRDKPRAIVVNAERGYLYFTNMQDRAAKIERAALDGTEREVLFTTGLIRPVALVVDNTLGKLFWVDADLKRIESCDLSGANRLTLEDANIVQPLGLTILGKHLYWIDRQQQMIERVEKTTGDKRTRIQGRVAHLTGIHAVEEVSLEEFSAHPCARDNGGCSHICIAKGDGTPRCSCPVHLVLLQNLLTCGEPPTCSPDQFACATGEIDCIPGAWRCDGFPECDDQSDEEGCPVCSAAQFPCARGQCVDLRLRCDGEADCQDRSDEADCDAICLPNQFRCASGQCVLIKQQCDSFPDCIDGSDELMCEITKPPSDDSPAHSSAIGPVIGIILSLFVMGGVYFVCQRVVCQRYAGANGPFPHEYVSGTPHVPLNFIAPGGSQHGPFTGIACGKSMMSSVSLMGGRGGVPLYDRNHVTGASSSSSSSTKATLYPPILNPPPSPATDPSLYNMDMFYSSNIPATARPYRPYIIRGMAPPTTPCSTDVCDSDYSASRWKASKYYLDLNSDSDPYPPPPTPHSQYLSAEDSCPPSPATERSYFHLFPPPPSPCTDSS
Excerpt: (§1) To develop a high throughput assay, the TCF-luciferase assay described in Example 7 was modified utilizing low level expression of endogenous LRP5/6 in U2OS and HEK293 cells. However, HOB-03-CE6 cells and any other cells which show a differential response to Dkk depending on whether LRP5, LRP6 or HBM are expressed. Using U2OS (human osteosarcoma) and HEK293 (ATCC) cells, the TCF-luciferase and tk-Renilla reporter element constructs were co-transfected along with Wnt3a/1 and Dkk. Wnt3a alone, by using endogenous LRP5/6, was able to stimulate TCF reporter gene activation. When Dkk, is co-transfected with Wnt3a/Wnt 1 and reporters (TCF-luci and tk-Renilla), DEkk represses reporter element activity. In addition, the TCF-luci signal is activated by Wnt3a/Wnt1 can be repressed by the addition of Dkk-enriched conditioned media to the cells containing Wnt3a/Wnt1 and reporters.
(§2) The Dkk-mediated repression of the reporter is dependent upon the concentration of transfected Dkk cDNA or on the amount of Dkk-conditioned media added. In addition, the Dkk-mediated reporter suppression can be altered by the co-transfection of LRP5, LRP6, and HBM cDNAs in the U2OS or HEK293 cells. In general, U2OS cells show greater sensitivity to Dkk-mediated reporter suppression than that in HEK-293 cells. […]

[3] = test system: HBM-mediated Wnt signaling; experiment: Xenopus embryo assay, hDkk-1 modulation of HBM+Wnt5a signaling; assay type: in vivo; details: hDkk-1 250 pg, FIG. 11
Method: mRNA for microinjection into Xenopus embryos is generated by in vitro transcription using the CDNA constructs in the pCS2^+ vector described above as template. RNA is synthesized using the Ambion mMessage mMachine high yield capped RNA transcription kit (Cat. #1340) following the manufacturer's specifications for the Sp6 polymerase reactions. RNA products were brought up to a final volume of 50 μl in sterile, glass-distilled water and purified over Quick Spin-Columns for Radiolabelled RNA Purification G50-Sephadex (Roche, Cat. #1274015) following the manufacturer's specifications. The resulting eluate was finally extracted with phenol:chloroform:isoamyl alcohol and isopropanol precipitated using standard protocols (Sambrook et al., 1989). Final RNA volumes were approximately 50 μl. RNA concentration was determined by absorbance values at 260 nm and 280 nm. RNA integrity was visualized by ethidium bromide staining of denaturing (formaldehyde) agarose gel electrophoresis (Sambrook et al., 1989). Various amounts of RNA (2 pg to 1 ng) are injected into the ventral blastomere of the 4- or 8-cell Xenopus embryo. These protocols are described in Moon et al., Technique-J. of Methods in Cell and Mol. Biol. 1: 76-89 (1989), and Peng, Meth. Cell. Biol. 36: 657-62 (1991). […]

LRP6 [4] = target: T1, LRP6; experiment: Cell-based TCF reporter high-throughput assay, LRP6 cDNA; parameters: Full length LRP6 was isolated from the pED6dpc4 vector; expressed in transfected cells; host or cells: HOB-03-CE6 osteoblastic cells; U2OS osteosarcoma cells; HEK293; details: U2OS cells, Wnt1 or Wnt3a/Wnt1 co-transfected, FIG. 20
Excerpt: as §1, §2
Target sequence in this assay (O75581 20-1613): as the sequence (O75581 20-1613, species assumed) above

HBM [5] = target: T2, HBM; experiment: TCF-luciferase assay in HOB-03-CE6 cells, HBM; assay type: cell-based; details: Wnt1, FIG. 14
Method: HOB-03-CE6 osteoblastic cells developed by Wyeth Ayerst (Philadelphia, Pa.) were seeded into 24-well plates at 150,000 cells per well in 1 ml of the growth media (D-MEM/F12 phenol red-free) containing 10% (v/v) heat-inactivated FBS, 1×penicillin streptomycin, and 1X Glutamax-1, and incubated overnight at 34° C. The following day, the cells were transfected using Lipofectamine 2000® (as described by the manufacturer, Invitrogen) in OptiMEM (Invitrogen) with 0.35 μg/well of LRP5, HBM, or control plasmid DNA (empty vector pcDNA3.1) and either Wnt1 or Wnt3 a plasmid DNA. […] All wells were transfected with 0.025 μg/well of CMV beta-galactosidase plasmid DNA and 0.35 μg/well 16X TCF(ASyluciferase reporter DNA (developed by Ramesh Bhat, Wyeth-Ayerst (Philadelphia, Pa.)). After 4 hours of incubation, the cells were rinsed and 1 ml of fresh growth media was added to each well. The cells were cultured overnight at 34° C., followed by a wash and a change of media. Cells were cultured for an additional 18-24 hours at 37° C. Cells were then lysed with 50 μl/well of 1X lysis buffer. The extracts were assayed for beta-galactosidase activity (Galacto Reaction Buffer Diluent & Light Emission Accelerator, Tropix) using 5 μl extract+50 μl beta-galactosidase diluent and luciferase activity (Luciferase Assay Reagent, Promega) using 20 μl extract.

Dkk-mediated repression of HBM signaling (TCF reporter) (HBM [2]; listed as Dkk1): least
Dkk-mediated repression of LRP6 signaling (TCF reporter) (LRP6 [4]): represses
Dkk-mediated repression of LRP6 signaling (TCF reporter) (LRP6 [4]; listed as Dkk1): maximal
Substance: Dkk-1: Dickkopf-1 protein, antagonist of the Wnt pathway; expressed from human cDNA (RNA or plasmid)
Kd (LRP6 [1]; Bafico et al., 125I-labeled Dkk-1): 390 pM
Kd (LRP6 [1]; Mao et al., classical biochemical ligand-receptor studies): 340 pM
Dkk-mediated repression of HBM signaling (TCF reporter) (HBM [2]): not efficiently inhibited; also recorded: little or no effect
repression of HBM-mediated Wnt signaling [3]: unable to repress
HBM/Wnt1 mediated TCF-luciferase activity (HBM [5]): no effect; also recorded: had no effect on LRP5 or HBM mediated TCF-luciferase activity
